In paper PMC4939597, “Mechanism for insulin-like peptide 5 distinguishing the homologous relaxin family peptide receptor 3 and 4” (Scientific Reports, 2016):
No end group written: not given here.

Experiments:
human RXFP4 [1] = target: T1, human RXFP4 (Homo sapiens, UniProt Q8TDU9); assay: Receptor binding assay, competition with NanoLuc-conjugated R3/I5 tracer
T1 construct: expressed in transfected cells; host or cells: HEK293T
Method in brief: (§1)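 HEK293T cells transiently expressing human RXFP3 or RXFP4 were incubated with 0.5 nM NanoLuc-conjugated R3/I5 tracer plus competitor in serum-free DMEM with 1% BSA, 2 h at 21 °C. Nonspecific binding used 1.0 μM human relaxin-3. After washing and lysis, bioluminescence was read and curves fitted sigmoidally (n = 3).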

human RXFP3 [2] = target: T2, human RXFP3 (Homo sapiens, UniProt Q9NSD7); assay: as above
T2 construct: expressed in transfected cells; host or cells: HEK293T
T2 sequence (Q9NSD7 1-469): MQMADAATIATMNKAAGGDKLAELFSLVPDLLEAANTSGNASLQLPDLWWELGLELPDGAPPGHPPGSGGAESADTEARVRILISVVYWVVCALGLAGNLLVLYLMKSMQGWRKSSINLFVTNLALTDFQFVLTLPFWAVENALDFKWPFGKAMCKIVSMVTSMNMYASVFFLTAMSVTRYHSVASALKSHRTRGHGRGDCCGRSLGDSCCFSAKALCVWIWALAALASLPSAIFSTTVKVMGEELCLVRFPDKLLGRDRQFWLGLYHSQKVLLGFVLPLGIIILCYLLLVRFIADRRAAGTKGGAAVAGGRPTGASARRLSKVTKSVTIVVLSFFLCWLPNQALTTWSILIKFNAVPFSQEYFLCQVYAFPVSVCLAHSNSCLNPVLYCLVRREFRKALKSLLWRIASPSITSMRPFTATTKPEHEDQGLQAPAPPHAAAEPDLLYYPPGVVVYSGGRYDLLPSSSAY
Method in brief: as §1

human RXFP4 [3] = target: T1, human RXFP4; assay: Receptor activation assay, CRE-controlled NanoLuc reporter; type: cell-based
human RXFP3 [4] = target: T2, human RXFP3; assay: as above; type: cell-based

T1 sequence (Q8TDU9 whole entry): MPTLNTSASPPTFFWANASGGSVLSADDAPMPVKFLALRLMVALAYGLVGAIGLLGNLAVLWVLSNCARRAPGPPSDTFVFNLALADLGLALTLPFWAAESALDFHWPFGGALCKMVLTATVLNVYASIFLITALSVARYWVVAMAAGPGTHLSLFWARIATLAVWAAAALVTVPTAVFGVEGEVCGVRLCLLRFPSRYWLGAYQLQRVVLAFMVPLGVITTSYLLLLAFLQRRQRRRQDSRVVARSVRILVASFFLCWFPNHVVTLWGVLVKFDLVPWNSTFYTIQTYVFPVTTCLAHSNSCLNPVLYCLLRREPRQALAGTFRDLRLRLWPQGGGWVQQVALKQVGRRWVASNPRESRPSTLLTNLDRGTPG

pIC50 RXFP4 (human RXFP4 [1]; HEK293T cells transiently overexpressing human RXFP4, 0.5 nM NanoLuc-conjugated R3/I5 tracer, 21 °C, 2 h, mean ± SE, n = 3, SEM): 6.39 ± 0.05
fold lower binding potency towards RXFP4 compared with wild-type INSL5 (human RXFP4 [1]; lower than wild-type INSL5): ~ 23 fold
pIC50 RXFP3 (human RXFP3 [2]; HEK293T cells transiently overexpressing human RXFP3, 0.5 nM NanoLuc-conjugated R3/I5 tracer, 21 °C, 2 h, mean ± SE, n = 3, SEM): 6.01 ± 0.06
fold lower binding potency towards RXFP3 compared with wild-type INSL5 (human RXFP3 [2]; lower than wild-type INSL5): ~ 18 fold
pEC50 RXFP4 (human RXFP4 [3]; HEK293T cells cotransfected with human RXFP4 and CRE-controlled NanoLuc reporter, 1.0 μM forskolin, 37 °C, 4 h, mean ± SE, n = 3, SEM): 8.59 ± 0.05
fold lower activation potency towards RXFP4 compared with INSL5 (human RXFP4 [3]; lower than wild-type INSL5): ~ 6 fold
pEC50 RXFP3 (human RXFP3 [4]; HEK293T cells cotransfected with human RXFP3 and CRE-controlled NanoLuc reporter, 1.0 μM forskolin, 37 °C, 4 h, mean ± SE, n = 3, N.D., not detectable, SEM): 6.90 ± 0.04
fold lower activation potency towards RXFP3 than relaxin-3 (human RXFP3 [4]; lower than relaxin-3): ~ 5000 fold
Substance: [A(B20)G,S(B21)G]INSL5: recombinant mature two-chain INSL5 mutant (Insulin-like peptide INSL5 B … KESVRLCGLEYIRTVIYICGGSRW; Insulin-like peptide INSL5 A … QDLQTLCCTDGCSMTDLSALC; not fully specified; ends and bridges not checked; UniProt Q9Y5Q6 23-46; Q9Y5Q6 115-135, looked up, variant A20G S21G)
